In publication PMC3046972, “Phosphorylation-Dependent 14-3-3 Binding to LRRK2 Is Impaired by Common Mutations of Familial Parkinson's Disease” (PLoS ONE, 2011):
Where no end group is shown, it is not given here. [ ]: non-standard residue; d: D form. pS = N[C@@H](COP(=O)(O)O)C(=O)O

T1: GST-14-3-3γ (UniProt P61981 1-247)
T1 construct: 14-3-3 gamma; also called purified GST-14-3-3γ; Sepharose bead-conjugated GST-14-3-3γ; source: bacteria (100 µM IPTG, 4 hours at 37°C), purified following the manufacturer's instruction (GE Healthcare)
T1 sequence (looked up): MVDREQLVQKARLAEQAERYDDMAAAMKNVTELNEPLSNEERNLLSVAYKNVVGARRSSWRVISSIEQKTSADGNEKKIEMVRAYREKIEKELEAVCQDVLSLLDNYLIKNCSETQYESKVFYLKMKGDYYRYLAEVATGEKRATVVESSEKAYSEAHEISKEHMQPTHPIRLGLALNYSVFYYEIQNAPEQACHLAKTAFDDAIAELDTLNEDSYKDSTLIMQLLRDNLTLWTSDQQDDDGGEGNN


What was measured:
[1] = molecular target: Myc-14-3-3γ wild type (UniProt P61981); assay: co-IP; HEK-293T cells co-transfected with FLAG-LRRK2 (wild type or mutant) and Myc-14-3-3; immunoprecipitation with anti-Myc antibody overnight, washes with modified RIPA buffer (300 mM NaCl); blot with anti-FLAG; Figure 5C quantified with LI-COR Odyssey
[2] = molecular target: T1, GST-14-3-3γ; assay: pull-down; competition: synthetic peptide at various concentrations added to brain lysate of FLAG-LRRK2 Wt transgenic mice for 1 hour, then GST-14-3-3γ beads for 4 hours; read-out is the FLAG-LRRK2 pulled down; conditions: both partners purified

Row | reduction of co-immunoprecipitation with Myc-14-3-3γ compared to wild type LRRK2 [1] [%] | binding result [2] | Molecule
1 | < 20 | – | FLAG-LRRK2 G2019S mutant, Q5S006 1-2527
2 | 90 | – | FLAG-LRRK2 S935A mutant (from UniProt Q5S006 1-2527) (natural protein)
3 | – | binds | Ac-QRHSN[pS]LGPC (stretch of LRRK2 around S935; C-terminal cysteine printed only in the methods; The results print the peptide without the last C (QRHSNpSLGP); the methods print QRHSNpSLGPC; also called pS935-containing peptide; phosphorylated peptide (pS935); source: synthetic peptide (The Rockefeller University Proteomics Resource Center, HPLC purified)) [phospho-peptide QRHSNpSLGPC (containing pS935 of LRRK2)]
